# Source: patent US20250161474A1 (SICHUAN KELUN BIOTECH BIOPHARMACEUTICAL, published 2025)
# B1: ADC 49B-A-05 (bispecific antibody, human IgG1, kappa, L234A L235A)
# light: DIQMTQSPSSLSASVGDRVTITCKSSQSLLYTSSQKNYLAWYQQKPGKAPKLLIYWASTRESGVPSRFSGSGSGTDFTLTISSLQPEDFATYYCQQYYAYPWTFGQGTKVEIKRTVAAPSVFIFPPSDEQLKSGTASVVCLLNNFYPREAKVQWKVDNALQSGNSQESVTEQDSKDSTYSLSSTLTLSKADYEKHKVYACEVTHQGLSSPVTKSFNRGEC
# heavy: not shown
# chain: AIQLTQSPSSLSASVGDRVTITCRASQDISSALVWYQQKPGKAPKLLIYDASSLESGVPSRFSGSESGTDFTLTISSLQPEDFATYYCQQFNSYPLTFGGGTKVEIKGGGGSGGGGSGGGGSQVQLVESGGGVVQPGRSLRLSCAASGFTFSTYGMHWVRQAPGKGLEWVAVIWDDGSYKYYGDSVKGRFTISRDNSKNTLYLQMNSLRAEDTAVYYCARDGITMVRGVMKDYFDYWGQGTLVTVSSGGGGDKTHTCPPCPAPEAAGGPSVFLFPPKPKDTLMISRTPEVTCVVVDVSHEDPEVKFNWYVDGVEVHNAKTKPREEQYNSTYRVVSVLTVLHQDWLNGKEYKCKVSNKALAAPIEKTISKAKGQPREPQVCTLPPSRDELTKNQVSLSCAVKGFYPSDIAVEWESNGQPENNYKTTPPVLDSDGSFFLVSKLTVDKSRWQQGNVFSCSVMHEALHNHYTQKSLSLSPGK
# modifications: linker-payload A-05 on reduced Cys sulfhydryls (sites not given); DAR of the whole ADC approximately 6
# B2: ADC 49B-A-14 (bispecific antibody, human IgG1, kappa, L234A L235A)
# light: DIQMTQSPSSLSASVGDRVTITCKSSQSLLYTSSQKNYLAWYQQKPGKAPKLLIYWASTRESGVPSRFSGSGSGTDFTLTISSLQPEDFATYYCQQYYAYPWTFGQGTKVEIKRTVAAPSVFIFPPSDEQLKSGTASVVCLLNNFYPREAKVQWKVDNALQSGNSQESVTEQDSKDSTYSLSSTLTLSKADYEKHKVYACEVTHQGLSSPVTKSFNRGEC
# heavy: not shown
# chain: AIQLTQSPSSLSASVGDRVTITCRASQDISSALVWYQQKPGKAPKLLIYDASSLESGVPSRFSGSESGTDFTLTISSLQPEDFATYYCQQFNSYPLTFGGGTKVEIKGGGGSGGGGSGGGGSQVQLVESGGGVVQPGRSLRLSCAASGFTFSTYGMHWVRQAPGKGLEWVAVIWDDGSYKYYGDSVKGRFTISRDNSKNTLYLQMNSLRAEDTAVYYCARDGITMVRGVMKDYFDYWGQGTLVTVSSGGGGDKTHTCPPCPAPEAAGGPSVFLFPPKPKDTLMISRTPEVTCVVVDVSHEDPEVKFNWYVDGVEVHNAKTKPREEQYNSTYRVVSVLTVLHQDWLNGKEYKCKVSNKALAAPIEKTISKAKGQPREPQVCTLPPSRDELTKNQVSLSCAVKGFYPSDIAVEWESNGQPENNYKTTPPVLDSDGSFFLVSKLTVDKSRWQQGNVFSCSVMHEALHNHYTQKSLSLSPGK
# modifications: linker-payload A-14 on reduced Cys sulfhydryls (sites not given); DAR of the whole ADC approximately 6
# B3: ADC 49B-B-01 (bispecific antibody, human IgG1, kappa, L234A L235A)
# light: DIQMTQSPSSLSASVGDRVTITCKSSQSLLYTSSQKNYLAWYQQKPGKAPKLLIYWASTRESGVPSRFSGSGSGTDFTLTISSLQPEDFATYYCQQYYAYPWTFGQGTKVEIKRTVAAPSVFIFPPSDEQLKSGTASVVCLLNNFYPREAKVQWKVDNALQSGNSQESVTEQDSKDSTYSLSSTLTLSKADYEKHKVYACEVTHQGLSSPVTKSFNRGEC
# heavy: not shown
# chain: AIQLTQSPSSLSASVGDRVTITCRASQDISSALVWYQQKPGKAPKLLIYDASSLESGVPSRFSGSESGTDFTLTISSLQPEDFATYYCQQFNSYPLTFGGGTKVEIKGGGGSGGGGSGGGGSQVQLVESGGGVVQPGRSLRLSCAASGFTFSTYGMHWVRQAPGKGLEWVAVIWDDGSYKYYGDSVKGRFTISRDNSKNTLYLQMNSLRAEDTAVYYCARDGITMVRGVMKDYFDYWGQGTLVTVSSGGGGDKTHTCPPCPAPEAAGGPSVFLFPPKPKDTLMISRTPEVTCVVVDVSHEDPEVKFNWYVDGVEVHNAKTKPREEQYNSTYRVVSVLTVLHQDWLNGKEYKCKVSNKALAAPIEKTISKAKGQPREPQVCTLPPSRDELTKNQVSLSCAVKGFYPSDIAVEWESNGQPENNYKTTPPVLDSDGSFFLVSKLTVDKSRWQQGNVFSCSVMHEALHNHYTQKSLSLSPGK
# modifications: linker-payload B-01 on reduced Cys sulfhydryls (sites not given); DAR of the whole ADC approximately 6
# B4: ADC 10B-A-05 (bispecific antibody, human IgG1, kappa)
# light: not shown
# heavy: not shown
# chain: DIQMTQSPSSLSASVGDRVTITCKSSQSLLYTSSQKNYLAWYQQKPGKAPKLLIYWASTRESGVPSRFSGSGSGTDFTLTISSLQPEDFATYYCQQYYAYPWTFGQGTKVEIKGGGGSGGGGSGGGGSEVQLVESGGGLVQPGGSLRLSCAASGYTFTSYWLHWVRQAPGKGLEWVGMIDPSNSDTRFNPNFKDRFTISADTSKNTAYLQMNSLRAEDTAVYYCATYRSYVTPLDYWGQGTLVTVSSGGGGDKTHTCPPCPAPELLGGPSVFLFPPKPKDTLMISRTPEVTCVVVDVSHEDPEVKFNWYVDGVEVHNAKTKPREEQYNSTYRVVSVLTVLHQDWLNGKEYKCKVSNKALPAPIEKTISKAKGQPREPQVCTLPPSREEMTKNQVSLSCAVKGFYPSDIAVEWESNGQPENNYKTTPPVLDSDGSFFLVSKLTVDKSRWQQGNVFSCSVMHEALHNHYTQKSLSLSPGK
# modifications: linker-payload A-05 on reduced Cys sulfhydryls (sites not given); DAR of the whole ADC approximately 6
# B5: ADC 41B-A-05 (bispecific antibody, human IgG1, kappa, L234A L235A)
# light: not shown
# heavy: not shown
# chain: DIQMTQSPSSLSASVGDRVTITCKSSQSLLYTSSQKNYLAWYQQKPGKAPKLLIYWASTRESGVPSRFSGSGSGTDFTLTISSLQPEDFATYYCQQYYAYPWTFGCGTKVEIKRTVAAPSVFIFPPSDEQLKSGTASVVCLLNNFYPREAKVQWKVDNALQSGNSQESVTEQDSKDSTYSLSSTLTLSKADYEKHKVYACEVTHQGLSSPVTKSFNRGECGGGGSGGGGSGGGGSGGGGSGGGGSGGGGSGGGGSGGGGSEVQLVESGGGLVQPGGSLRLSCAASGYTFTSYWLHWVRQAPGKCLEWVGMIDPSNSDTRFNPNFKDRFTISADTSKNTAYLQMNSLRAEDTAVYYCATYRSYVTPLDYWGQGTLVTVSSASTKGPSVFPLAPSSKSTSGGTAALGCLVKDYFPEPVTVSWNSGALTSGVHTFPAVLQSSGLYSLSSVVTVPSSSLGTQTYICNVNHKPSNTKVDKKVEPKSCDKTHTCPPCPAPEAAGGPSVFLFPPKPKDTLMISRTPEVTCVVVDVSHEDPEVKFNWYVDGVEVHNAKTKPREEQYNSTYRVVSVLTVLHQDWLNGKEYKCKVSNKALAAPIEKTISKAKGQPREPQVCTLPPSRDELTKNQVSLSCAVKGFYPSDIAVEWESNGQPENNYKTTPPVLDSDGSFFLVSKLTVDKSRWQQGNVFSCSVMHEALHNHYTQKSLSLSPGK
# modifications: linker-payload A-05 on reduced Cys sulfhydryls (sites not given); DAR of the whole ADC approximately 8
# B6: BsAb 41B (bispecific antibody, human IgG1, kappa, L234A L235A)
# light: not shown
# heavy: not shown
# chain: DIQMTQSPSSLSASVGDRVTITCKSSQSLLYTSSQKNYLAWYQQKPGKAPKLLIYWASTRESGVPSRFSGSGSGTDFTLTISSLQPEDFATYYCQQYYAYPWTFGCGTKVEIKRTVAAPSVFIFPPSDEQLKSGTASVVCLLNNFYPREAKVQWKVDNALQSGNSQESVTEQDSKDSTYSLSSTLTLSKADYEKHKVYACEVTHQGLSSPVTKSFNRGECGGGGSGGGGSGGGGSGGGGSGGGGSGGGGSGGGGSGGGGSEVQLVESGGGLVQPGGSLRLSCAASGYTFTSYWLHWVRQAPGKCLEWVGMIDPSNSDTRFNPNFKDRFTISADTSKNTAYLQMNSLRAEDTAVYYCATYRSYVTPLDYWGQGTLVTVSSASTKGPSVFPLAPSSKSTSGGTAALGCLVKDYFPEPVTVSWNSGALTSGVHTFPAVLQSSGLYSLSSVVTVPSSSLGTQTYICNVNHKPSNTKVDKKVEPKSCDKTHTCPPCPAPEAAGGPSVFLFPPKPKDTLMISRTPEVTCVVVDVSHEDPEVKFNWYVDGVEVHNAKTKPREEQYNSTYRVVSVLTVLHQDWLNGKEYKCKVSNKALAAPIEKTISKAKGQPREPQVCTLPPSRDELTKNQVSLSCAVKGFYPSDIAVEWESNGQPENNYKTTPPVLDSDGSFFLVSKLTVDKSRWQQGNVFSCSVMHEALHNHYTQKSLSLSPGK
# notes: Fab-scFab-Fc (KIH) format; anti-EGFR Fab, anti-c-MET scFab; also called bispecific antibody 41B
# Experiments:
# human c-MET [1] = target: T1, human c-MET (human, UniProt P08581 25-1390); experiment: cell-based or functional assay
# T1 sequence (P08581 25-1390): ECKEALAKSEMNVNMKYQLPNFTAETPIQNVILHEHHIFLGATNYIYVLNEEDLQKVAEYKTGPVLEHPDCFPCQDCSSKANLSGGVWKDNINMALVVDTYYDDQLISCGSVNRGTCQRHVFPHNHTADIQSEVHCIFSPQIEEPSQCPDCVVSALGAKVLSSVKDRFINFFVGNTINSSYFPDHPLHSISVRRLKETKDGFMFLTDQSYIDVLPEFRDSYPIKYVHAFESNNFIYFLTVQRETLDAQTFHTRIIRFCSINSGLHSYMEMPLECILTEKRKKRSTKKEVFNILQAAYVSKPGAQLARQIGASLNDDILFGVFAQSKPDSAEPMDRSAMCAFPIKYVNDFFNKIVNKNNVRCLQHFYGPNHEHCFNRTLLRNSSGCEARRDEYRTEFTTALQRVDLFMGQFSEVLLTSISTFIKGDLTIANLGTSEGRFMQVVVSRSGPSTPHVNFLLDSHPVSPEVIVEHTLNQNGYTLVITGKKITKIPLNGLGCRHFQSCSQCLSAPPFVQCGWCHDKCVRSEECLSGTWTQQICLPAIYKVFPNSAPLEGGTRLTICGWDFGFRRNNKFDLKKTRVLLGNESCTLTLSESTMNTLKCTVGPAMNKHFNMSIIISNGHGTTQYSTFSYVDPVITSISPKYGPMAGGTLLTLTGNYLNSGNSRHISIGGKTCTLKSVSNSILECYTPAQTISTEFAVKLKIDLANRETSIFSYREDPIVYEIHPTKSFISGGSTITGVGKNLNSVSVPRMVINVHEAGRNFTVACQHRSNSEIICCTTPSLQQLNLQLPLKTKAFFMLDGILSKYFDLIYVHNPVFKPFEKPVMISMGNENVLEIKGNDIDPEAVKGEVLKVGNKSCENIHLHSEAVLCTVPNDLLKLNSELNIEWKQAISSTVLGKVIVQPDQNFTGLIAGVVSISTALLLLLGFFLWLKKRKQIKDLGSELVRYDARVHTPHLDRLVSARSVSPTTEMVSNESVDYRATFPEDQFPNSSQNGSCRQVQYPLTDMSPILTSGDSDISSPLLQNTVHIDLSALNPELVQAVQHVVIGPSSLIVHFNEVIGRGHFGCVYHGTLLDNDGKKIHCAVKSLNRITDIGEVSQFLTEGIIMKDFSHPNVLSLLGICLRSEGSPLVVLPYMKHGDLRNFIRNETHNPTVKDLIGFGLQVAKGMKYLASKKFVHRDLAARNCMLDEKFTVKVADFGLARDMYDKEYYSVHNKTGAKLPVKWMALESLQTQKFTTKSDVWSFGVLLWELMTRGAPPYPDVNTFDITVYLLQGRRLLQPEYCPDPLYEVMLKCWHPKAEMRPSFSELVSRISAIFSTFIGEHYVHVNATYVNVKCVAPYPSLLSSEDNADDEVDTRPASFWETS
# human c-MET [2] = target: T1, human c-MET; experiment: flow cytometry on EBC-1 cells (highly express c-MET)
# From the text: (§1) A flow cytometer (Beckman, model Cytoflex) was used to detect the interaction between anti-human EGFR/c-MET bispecific antibodies and their conjugates and human gastric cancer cells MKN45 (Nanjing Cobioer Biosciences) and human gastric cancer cells overexpressing human EGFR MKN45-EGFR (Kelun-Biotech), human lung squamous cell carcinoma EBC-1 (Nanjing Cobioer Biosciences), human lung squamous cell carcinoma EBC-1-EGFR overexpressing human EGFR (Kelun-Biotech), human non-small cell lung cancer cell HCC827 (ATCC™), and human epidermal squamous cell carcinoma cell A431 (Nanjing Cobioer Biosciences). The protocol was as follows.
# (§2) The adherent cells were digested with Trypsin-EDTA solution (0.25%) (Shanghai BasalMedia) and the cell density adjusted to 4.0×10⁶ per mL. The cells were washed twice with 1% BSA and resuspended in 1% BSA solution. Then 50 μL cell suspension was added to each well of a 96-well plate (the number of cells was 2×10⁵ per well). The antibody and its conjugate were diluted with 1% BSA (final concentration 10 µg/mL, 3-fold gradient dilution, a total of 11 concentration points). Then 50 μL of the diluted antibody and ADC were added to the wells of the 96-well plate and the plate was incubated at 4° C. for 60 minutes. The wells of the 96-well plate were then washed twice with 1% BSA, 50 μL of diluted secondary antibody was added to each well, and the 96-well plate was incubated at 4° C. for 30 minutes. Then the cells were washed twice with 1% BSA, and the cells were resuspended in 200 μL of 1% BSA and subjected to flow cytometry detection.
# human c-MET [3] = target: T1, human c-MET; experiment: flow cytometry on MKN45 cells (highly express c-MET)
# From the text: as §1, §2
# human EGFR = target: T2, human EGFR (human, UniProt P00533 25-1210); experiment: flow cytometry on A431 cells (highly express EGFR)
# T2 construct: whole, on cells; also called epidermal growth factor receptor; ErbB-1
# From the text: as §1
# as §2, with “The wells of the 96-well plate were then washed twice with 1% BSA, 50 μL of diluted secondary antibody was added to each well, and the 96-well plate was incubated at 4° C. for 30 minutes. Then the cells were washed twice with 1% BSA, and the cells were resuspended in 200 μL of 1% BSA and subjected to flow cytometry detection.” left out
Binder,"IC50, in vitro cell killing (CCK8) on EBC-1 cells (human c-MET [1])","IC50, in vitro cell killing (CCK8) on MKN45 cells (human c-MET [1])",EC50 (human c-MET [2]),EC50 (human c-MET [3]),EC50 (human EGFR)
B1,1.08 nM,0.68 nM,0.95 nM,1.58 nM,–
B2,2.93 nM,0.57 nM,1.51 nM,1.06 nM,–
B3,0.66 nM,0.78 nM,1.13 nM,1.36 nM,–
B4,0.59 nM,0.33 nM,1.91 nM,2.14 nM,–
B5,0.44 nM,0.42 nM,–,0.69 nM,0.48 nM
B6,–,–,–,1.77 nM,1.34 nM
